# Results: the nanobody polyreactivity screen of Harvey et al. (2022)
# Test: yeast display, Sf9 membrane polyspecificity reagent, FACS + sequencing; frameworks hold sequencing errors
# Summary of the method: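 Galactose induction of a Saccharomyces cerevisiae BJ5465 synthetic nanobody display library ran 36–48 hours. The cells were then stained for 1 hour at 4 °C with 10% biotinylated, detergent-solubilized Sf9 membrane reagent, pulled down on streptavidin microbeads and FACS-sorted into low and high (top ~1%) gates on expression and reagent-binding fluorescence. Labels for polyreactivity follow the gate of origin.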
row,Sequence,polyreactivity (PSR sort gate)
1,QVQLVESGGGLVQAGGSLRLSCAASGYTFSPNDMGWYRQAPGKERELVAAITSSVGSTYYADSVKGRFTISRDNAKNTVYLQLNSLKPEDTAVYYCNKQDSSYYISGGGDYDYWGQGTQVTVSS,low polyreactivity
2,QVQLVESGGGLVQAGGSLRLSCAASGYTFTGYALGWYRQAPGKERELVAAITSIGGSTYYADSVKGRFTISRDNAKNTVYLQMNSLKPEDTAVYYCAAEGDYVYDMDYWGQGTQVTVSS,low polyreactivity
3,QVQLVESGGGLVQAGGSLRLSCAASGYTFTHYAMGWYRQAPGKERELVAGITWSGGSTYYADSVKGRLTISRDNAKNTVYLQMNSLKPEDTSVYYCAAKYYWYYSYSGIPLFDYWGQGTQVTVSS,low polyreactivity
4,QVQLVESGGGLVQAGGSLRLSCAASGYTFTLYAMGWYRQAPGKEREFVAAISIGGDSTYYADSVKGRFTISRDNAKNTVYLQMNSLKPEDTAVYYCAADTYQRWILLIGELQVETSYDYWGQGTQVTVSS,low polyreactivity
5,QVQLVESGGGLVQAGGSLRLSCAASGYTFVIYAMGWYRQAPGKERELVAAITTIGGRTYYADSVKGRFTISRDNAKNTVYLQMNSLKPEDTAVYYCAADIRSYRLYDGGYWGQGTQVTVSS,low polyreactivity
6,QVQLVESGGGLVQAGGSLRLSCAASGYTFVVYAMGWYRQAPGKERELVAGITRGSSTYYADSVKGRFTISRDNAKNTVYLQMNSLKPEDTAVYYCARGYTWFYAVWPEYDYWGQGTQVTVSS,high polyreactivity
7,QVQLVESGGGLVQAGGSLRLSCAASGYTFVYYAMGWYRQAPGKERELVAAITSGGRTNYADSVKGRFTISRDNAKNTVYLQMNSLKPEDTAVYYCARLDYRSVRYGLRGQGTQVTVSS,low polyreactivity
8,QVQLVESGGGLVQAGGSLRLSCAASGYTFWDNAMGWYRQAPGKERELVAAITIRSGRTYYADSVKGRFTISRDNAKNTVYLQMNSLKPEDTAVYYCNAQIYTYRTGRGYSRMDYWGKGTQVTVSS,high polyreactivity
9,QVQLVESGGGLVQAGGSLRLSCAASGYTFWDYALGCYRQAPGKERAFVAGISFSDGGTYYADSVKGRFTISRDNAKNTVYLQMNSLKPEDTAVYYCAATYPYSWVYSGYYYWGQGTQVTVSS,low polyreactivity
10,QVQLVESGGGLVQAGGSLRLSCAASGYTFWLYAMGWYRQAPGKERELVATISRRAGTTYYADSVKGRFTISRDNAKNTVYLQMNSLKPEDTAVYYCNTDGYPRLYIYDYWGQGTQVTVSS,low polyreactivity
11,QVQLVESGGGLVQAGGSLRLSCAASGYTFWWYAMGWYRQAPGKEREFVAAIRFSGGTGTYYADSVKGRFTISRDNAKNTVYLQMNSLKPEDTAVYYCAADIAFRQWQVGDFDYWGQGTQVTVSS,low polyreactivity
12,QVQLVESGGGLVQAGGSLRLSCAASGYTFWWYAMGWYRQAPGKEREFVAAIRFSGGTRTYYADSVKGRFTISRENAKYTVFLQMNSLKPDDTAVYYCAADIAFRQWQVGDFDYWGQGTQVTVSS,low polyreactivity
13,QVQLVESGGGLVQAGGSLRLSCAASGYTFWYYTMGWYRQATGKERELVATISSNGRRTYYADSVKGRFTISRDNAKNTVYLQMNSLYPEDTAVYYCAAVLYRSWVYTTHDYWGHGTQVTVSS,high polyreactivity
14,QVQLVESGGGLVQAGGSLRLSCAASGYTFYANAMGWYRQAPGKEREFVASITWSGGSTYYADSVKGRFTISRDNAKNTVYLQMNSLKTEDTAVYYCAAESWFKYDYWGQGTQVTVSS,low polyreactivity
15,QVQLVESGGGLVQAGGSLRLSCAASGYTFYAYAMGWYRQAPGKERELVAAISGSGGNTRYADSVKGRFTISRDNAKNTVYLQMNSLKPEDTAVYYCAAVGWAYNSRYDYWGQGTQVTVSS,high polyreactivity
16,QVQLVESGGGLVQAGGSLRLSCAASGYTFYGYAMGWYRQAPGKERELVAAISWSGTNTNYADSVKGRFTISRDNAKNTVYLQMNSLKPEDTAVYYCAAGYYYRGFHTEDYWGQGTQVTVSS,high polyreactivity
17,QVQLVESGGGLVQAGGSLRLSCAASGYTFYPYAMGWYRQAPGKERELVAAITTSGGSTYYADSVKGRFTISRDNAKNTVYLQMNSLKPEDTAVYYCARDSLQVFYPYASDDYWGQGTQVTVSS,low polyreactivity
18,QVQLVESGGGLVQAGGSLRLSCAASGYTFYRYAMGWYRQAPGKERELVAGIDRSGTRTYYADSVKGRFTISRDNAKNTVYLQMNSLKPEDTAVYYCNAVAYYVSKYDYWGQGTQVTVSS,high polyreactivity
19,QVQLVESGGGLVQAGGSLRLSCAASGYTFYRYAMGWYRQAPGKERELVAGISRDGGSTYYADSVKGRFTISRDNAKNTVYLQMNSLKPEDTAVYYCAADKTRYRLGRDYWGQGTQVTVSS,low polyreactivity
20,QVQLVESGGGLVQAGGSLRLSCAASGYTFYRYTMGWYRQAPGKEREVVAAINSGGSTNYADSLKGRFTISRDNAKNTVYLQMNSLKPEDTAVYYCARRYQTWPRWYDYWGQGTQVTVSS,high polyreactivity
21,QVQLVESGGGLVQAGGSLRLSCAASGYTFYVYTMGWYRQAPGKERELVAAISGSGTSTYYADSVKGRFTISRDNAKNTVYLQMNSLKPEDTAVYYCAAEDYSSDVYSYDYWGQGTQVTVSS,low polyreactivity

row,Sequence,polyreactivity (PSR sort gate)
1,QVQLVESGGGLVQAGGSLRLSCAASGYTFYWNVMGWYRQAPGKERELVAVIDWSGGSTHYADSVKGRFTISRDNAKNTVYLQMNSLKPEDTAVYYCAAVDIRLEWDYWFQPTYDYWGQGTQVTVSS,low polyreactivity
2,QVQLVESGGGLVQAGGSLRLSCAASGYTFYYNAMGWYIQAPGKERELVARISRSGGSTYADSVKGRFTISRDNAKNTVYLQMNSLKPEDTAVYYCNADAYGTPEFTSYAVRYDYWGQGTQVTVSS,low polyreactivity
3,QVQLVESGGGLVQAGGSLRLSCAASGYTIIQYAMGWYRQAPGKERELVAGMTWSGGSKYADSVKGRFTISRDNAKNTVYLQMNSLNPEDTAVYYCAAVPYSYTYVYLRHYDYWGQGTQVSVSS,low polyreactivity
4,QVQLVESGGGLVQAGGSLRLSCAASGYTIRYYAMGSYRQAPGKERELVADISYSGGRTYYADSVKGRITISRDNAKNTVDLLMNSLKPEDSAVYYSNARGGRRAYNYGYWGQGTQVTVSS,high polyreactivity
5,QVQLVESGGGLVQAGGSLRLSCAASGYTIWHYAMGWYRQAPGKEREFVATISSGGSTYYADSVKGRFTISRDNAKNTVYLQMNSLKPEDTAVYYCAVDIWGGEGYDSWGQGTQVTVSS,low polyreactivity
6,QVQLVESGGGLVQAGGSLRLSCAASGYTIYVNAMGRYRQAPAKQRQLVASNRRDSTYYADSVKGRFTISRDNAKNTVYLQMNSLKPEDSAVYYCAVDWYPWLYDGRTYEYWGQGTQVTVSS,low polyreactivity
7,QVQLVESGGGLVQAGGSLRLSCAASGYTLNIYGMGWYRQATGKERELVAAISRGGSTNYADSVKGRFTISRDNAKNTVYLQMNSLKPEDTAVYYCAKVYNYRSVRYYYWGQGTQVTVSS,high polyreactivity
8,QVQLVESGGGLVQAGGSLRLSCAASGYTLRIYAMGWYRQAPGKERELVAAISRSGGRTFYADSVKGRFTISRDNAKNTVYLQMISLTPEDTAVFYCAAVSAYYYRRTYEYWGQGTQVTVSS,high polyreactivity
9,QVQLVESGGGLVQAGGSLRLSCAASGYTLYLNAMGWYRQAPGKERELFARISGGGSTNYADSVKGRFTISRDNAKNTVYLQMNSLKPEDTAVYYCAATIFAYGYRSFKLDYWGQGTQVTVSS,low polyreactivity
10,QVQLVESGGGLVQAGGSLRLSCAASISSSNAMGWYRQAPGKERELVAAIRWSGTSTYYADSVKGRFTISRDNANNTVYLQMNSLKPEETAVYYCAARYVRVGYDYWGQGTQVTVSS,high polyreactivity
11,QVQLVESGGGLVQAGGSLRLSCAASMGWYRQAPGKERELVAITRTTRTYYADSVKGRFTISRDNAKNTVYLQMNSLKPEDTAVYYCAAPNGPSPYWYNYWGQGTQVTVSS,low polyreactivity
12,QVQLVESGGGLVQAGGSLRLSCAASRFIFGAYTMGWYRQAPGKERELVAAISWSGDSTYYADSVKGRFTISRDNAKNTVYLQMNSLKPEDTAVYYCAAVWYWSGFDYWGQGTQVTVSS,high polyreactivity
13,QVQLVESGGGLVQAGGSLRLSCAASRFIFSFYVMGWYRQAPAKETELVAAISTSGASTYYADSVKGRFTITRDNAKKTVYLQMNSLKPEDTAVYYCNVGYRYGGYNYWGQGTQVTVSW,high polyreactivity
14,QVQLVESGGGLVQAGGSLRLSCAASRFIFSSYVMGRYRQAPGKERELVAASRSGGSTNYADSVKGRFTISRDNAKNTVYLQMNSLKPEDTAVYYCAARGRLGQGYYYWGQGTLVTVSS,low polyreactivity
15,QVQLVESGGGLVQAGGSLRLSCAASRFIFWPYAMGWYRPAPGKERELVAAITTGGSTNYADSVKGRFTISRDNAKNTVYFQMNSLKPEDTAVYYCAKGYYFGYYEFVYWGQGTQVTVSS,high polyreactivity
16,QVQLVESGGGLVQAGGSLRLSCAASRFTFSGYAMGWYRQAPGKERELVATISSSGSTYADSVKGRFTISRDNAKNTVYLQMNSLKPEDTAVYYCAKRVPFFDYWGQGTQVTVSS,low polyreactivity
17,QVQLVESGGGLVQAGGSLRLSCAASRFTFVHYAMGWYRQAPGKERELVAAISRSGGSTYCADSVKGRFTISRDNAKNTVYLQMNSLKPEDTAVYYCAASRGSYEVVYWGQGTQVTVSS,high polyreactivity
18,QVQLVESGGGLVQAGGSLRLSCAASRFYTMGWYIPAPGKERELVAAISWSGGDTYYADSVKGRYTISRDNAKNTVYLQMNSLKQEDTAVYYCPKKTIGSYVHEPYYYWGQGNQVTVSS,low polyreactivity
19,QVQLVESGGGLVQAGGSLRLSCAASRIIFWFYAMGWYRQAPGKERELVAAISGDGDSTYYADSVKGRFTISRDNAKNTVYLQMNSLIPEDTAVYYCAAEWDPVFATDEDDYWGQGTQVTVSS,low polyreactivity
20,QVQLVESGGGLVQAGGSLRLSCAASRRIFDVNSMGWYRQAPGKERELVAAISSGGNTKYADSVKGRFTISRDNAKNSVYLQMNSLKPEDTAVYYCIADGKAAGDYDYWGQGTQVTVSS,low polyreactivity
